# B1: fragment antigen binding (Fab) of mAb CB6 (Fab, V domains shown)
# VH: EVQLVESGGGLVQPGGSLRLSCAASGFTVSSNYMSWVRQAPGKGLEWVSVIYSGGSTFYADSVKGRFTISRDNSMNTLFLQMNSLRAEDTAVYYCARVLPMYGDYLDYWGQGTLVTVSS
# VL: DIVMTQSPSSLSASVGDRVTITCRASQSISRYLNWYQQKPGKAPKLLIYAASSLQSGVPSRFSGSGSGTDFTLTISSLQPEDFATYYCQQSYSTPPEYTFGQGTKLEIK
# Target: prototype SARS-CoV-2 tandem RBD homotrimer (PPP) (SARS-CoV-2, UniProt P0DTC2)
# Assay: SPR
binder,measurement,value
B1,Kd,24.3 nM
